US20230348578A1, “CONFORMATION-SPECIFIC ANTIBODIES THAT BIND TAU PROTEIN AND USES THEREOF” (Beth Israel Deaconess Medical Center, Inc., priority 2020, published 2023)
Substitutions are numbered along the chain they refer to.

Legend:
[1] = target: cis pT231-tau (P-tau peptide, pure cis or cis-locked); test: Biacore assay of binding affinity of humanized cis mAb variants
Excerpt: We next started to characterize and select lead humanized mAbs. We expressed and purified humanized mAb variants using a CHO expression system. We transfected over 45 plasmid DNA pairs of heavy and light chain cDNAs into CHO cells to express over 225 humanized cis mAb variants in various combinations. To evaluate the target binding specificity and affinity of our mouse mAbs, we established a simple and quantitative ELISA to screen the clones using a wild-type P-tau peptide and its pure cis or cis-locked, and pure trans counterparts and determined the binding affinity for selected clones using Biacore assays. We screened over 200 humanized cis mAb variants. […] Furthermore, one-tenth of humanized cis mAb variants were also able to recognize cis P-tau in human AD and TBI brains based on immunostaining analysis.
(§1) The binding affinity of selected humanized antibody clones was determined by Biacore assay using a wild-type P-tau peptide and its pure cis or cis-locked, and pure trans counterparts. The […] of the selected humanized cis mAb variants was determined by assessing their ability to eliminate cis P-tau in stressed neurons in cell cultures. Functional restoration of selected clones was determined by their ability to restore risk-taking behavior after 3-hit or 7-hit repetitive TBI in mice, as assayed by elevated plus maze.

[2] = tested on: mice (C57/BL6) after 3-hit repetitive TBI; test: 3-hit repetitive mild TBI in mice, elevated plus maze; format: in vivo; details: risk-taking behavior, HT13 chimera control = 1.0
Description: as §1
(§2) An initial sign of brain dysfunction following traumatic brain injury (TBI) is an increase in risk-taking behavior. To determine the therapeutic effect of the herein described cis pT231-tau monoclonal antibodies in restoring brain function 11-week old mice (C57/BL6) mice were subjected to elevated plus maze behavioral assays designed to evaluate risk-taking behavior following repetitive mild TBIs. The behavioral assays were performed as previously described in Walf, Nature Protocols 2(2): 322-328, 2007 (FIG. 7). […] All other mice sustained mild TBI (rmTB) either three times, once a day for three consecutive days, or seven times once a day for five consecutive days and two consecutive times on days 8 and 9. In the 3-hit TBI experiment (FIG. 8A), nine groups of mice received three doses (250 ug/mouse) via intraperitoneal injection of either IgG control (n=10 mice) or one of the following humanized cis pT231-tau monoclonal antibody variants C113 (n=5 mice), HT1 (n=10 mice), HT2 (n=10), HT3 (n=10), HT8 (n=5), HT10 (n=10), HT13 (n=15), HT18 (n=4). Treatment with IgG or humanized cis-pT231-tau monoclonal antibody was administered on Days 1, 2 and 7. Behavioral evaluation was performed on Day 13. In the 7-hit TBI experiment (FIG. 8B), one group sustained TBI only (n=10 mice). The other groups received 8 doses (250 ug/mouse) via intraperitoneal injection of either IgG control (n=10 mice) or one of the following humanized cis pT231-tau monoclonal antibody variants C113 (n=10 mice), HT2 (n=10), HT3 (n=10), HT8 (n=10), HT10 (n=10), HT13 (n=10), HT18/HC2 (n=10). Treatment with IgG or humanized cis-pT231-tau monoclonal antibody was administered on Days 1, 2, 3, 5, 8, 10, 13 and 20. Behavioral evaluation was performed on Day 27. The elevated plus maze was used to assess anxiety/risk-taking behavior and carried out as described in Kondo et al, Nature 523, 431-436, 2015. Briefly, the elevated plus maze consists of two white open arms (30×5 cm) and two white closed arms of the same size with 15-cm-high walls, extended out opposite from each other from a central platform (decision zone) to create a plus shape. The entire apparatus is raised 38 cm above the floor (Lafayette Instruments). Mice are placed on the center platform of the maze, facing a closed arm, and allowed to explore the apparatus for 5 min. The maze is cleaned between subjects with a weak ethanol solution and dried. A computer-assisted video tracking system (Noldus Ethovision) recorded the total time spent in the center platform (decision zone), and the two closed or ‘safe’ arms and the two open or ‘aversive’ arms. Mice with lower levels of anxiety/risk-taking behavior spend less time in the open arms.

cis P-tau [3] = target: T1, cis P-tau (Homo sapiens, UniProt P10636); test: Elimination of cis P-tau in cultured neurons stressed by hypoxia; format: cell-based; design: endogenous in cells; details: 2.5 μg/ml, 5 μg/ml and 10 μg/ml
Description: as §1
Cultured neurons were subjected to neuron stress by hypoxia in the presence or absence of different concentration of humanized antibody variants, followed by immunoblotting analysis to analyze cis P-tau levels in the stressed neurons, the results of which are provided in FIGS. 2-4. FIG. 2 is an immunostaining image showing the ability of humanized cis pT231-tau monoclonal antibody variants to eliminate cis P-tau in neurons under hypoxic conditions. Cis P-tau levels are reported in red and blue reports nuclear staining (Hoechst) to represent all neurons in the experiment. […] Cis P-tau levels are reported in red and blue reports nuclear staining (Hoechst) to represent all neurons in the experiment. […] IgG is a negative control. The cis-pTau monoclonal antibody C113 serves as a positive control.

[4] = tested on: mice (C57/BL6) after 7-hit repetitive TBI; test: 7-hit repetitive mild TBI in mice, elevated plus maze; format: in vivo; details: risk-taking behavior, HT13 chimera control = 1.0
Description: as §1, §2

cis P-tau [5] = target: T1, cis P-tau; test: Immunoblotting of CSF of live TBI patients; format: binding; design: The recognition of cis P-tau in the CSF of live TBI patients; from tissue; host or cells: cerebrospinal fluid of live traumatic brain injury patients; details: relative to control CSF samples
Excerpt: CSF pT231-tau is an early biomarker of traumatic brain injury (TBI). The recognition of cis P-tau in the CSF of live TBI patients by the humanized cis pT231-tau monoclonal antibody variants evaluated immunoblotting analyses using different humanized antibody variants.

[6] = tested on: BCAS (bilateral common carotid artery stenosis) mice; test: 3 month treatment of BCAS mice with humanized cis mAbs (Y maze, NOR, Barnes maze); format: in vivo
Description: BCAS mice were treated with novel humanized cis mAbs (HT10 and HT18), murine cis mAb C113 (as described in, e.g., U.S. Pat. No. 9,688,747, positive control), mouse-human chimeric HT13 (positive control), or IgG (negative control). Behavioral changes were assay by Y-maze and novel object recognition (NOR) at 1 month after BCAS (FIG. 92A); by Y-maze and NOR at 3 months after BCAS (FIG. 92B); and by Barnes maze at 3 months after BCAS (FIG. 92C). *, p<0.05; **, p<0.01; ***, p<0.001; ****, p<0.0001.
As described above in Examples 1-4, we developed 225 humanized cis P-tau mAb variants and identified 10 top fully humanized cis mAb variants (HT1-4, HT6-10 and HT18) with the expected specificity and potency. […] In this experiment, we performed a 3 month treatment of BCAS (bilateral common carotid artery stenosis) mice with two humanized cis mAb variants, HT10 and HT18, along with murine cis mAb C113 (as described in, e.g., U.S. Pat. No. 9,688,747) and mouse-human chimeric HT13 as positive controls.

[7] = 3 months after BCAS surgery, Barnes maze

T1 sequence (P10636 1-441 isoform P10636-8): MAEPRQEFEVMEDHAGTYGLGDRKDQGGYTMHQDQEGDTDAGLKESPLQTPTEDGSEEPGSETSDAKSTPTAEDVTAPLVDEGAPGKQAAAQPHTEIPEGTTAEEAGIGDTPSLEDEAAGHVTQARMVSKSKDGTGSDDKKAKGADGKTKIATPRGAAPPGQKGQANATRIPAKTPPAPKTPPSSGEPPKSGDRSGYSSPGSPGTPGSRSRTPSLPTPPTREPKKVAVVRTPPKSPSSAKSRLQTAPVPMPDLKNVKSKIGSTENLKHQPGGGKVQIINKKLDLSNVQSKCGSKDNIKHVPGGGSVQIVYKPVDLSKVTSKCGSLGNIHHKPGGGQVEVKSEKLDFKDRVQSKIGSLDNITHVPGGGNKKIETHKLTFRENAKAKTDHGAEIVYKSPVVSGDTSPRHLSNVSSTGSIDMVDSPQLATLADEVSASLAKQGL

B1: HT2: humanized cis-pThr231-tau mAb; heavy chain variable domain SEQ ID NO: 26, light chain variable domain SEQ ID NO: 16 (antibody, V domains shown)
VH: QVQLVQSGAEVKKPGASVKMSCKASGYTFTSYWIHWVKQRPGQGLEWIGVIDPSDSYTRYNQKFKGRATLTVDTSASTAYMELSSLRSEDTAVYYCTTWEVDYWGQGTLVTVSS
VL: DVVMTQSPLSLPVTLGQPASISCRSSQSLVHSDGNTYLHWYLQKPGQSPQLLIYKVSNRFSGVPDRFSGSGSGTDFTLKISRVEAEDVGVYFCSQSTHVPWTFGGGTKVEIK
- Kd [1]: 1.62 nM
- Functional restoration 3-hit TBI [2]: 1.4
- elimination of cis P-tau in neurons under hypoxic conditions (images) (cis P-tau [3]): elimination of cis P-tau
- rank in cis P-tau elimination assay (FIG. 4) (cis P-tau [3]): top four performing variants
- Functional restoration 7-hit TBI [4]: 1.7

B2: HT8: humanized cis-pThr231-tau mAb; heavy chain variable domain SEQ ID NO: 28, light chain variable domain SEQ ID NO: 18 (antibody, V domains shown)
VH: B1 VH with M20V, K38R, A68V, L70I, V72R
VL: B1 VL with F60D
- detection of cis P-tau in CSF of live TBI patients (cis P-tau [5]): robust detection of cis P-tau as early as three days after TBI
- Kd [1]: 7.68 nM
- elimination of cis P-tau in neurons under hypoxic conditions (images) (cis P-tau [3]): elimination of cis P-tau
- rank in cis P-tau elimination assay (FIG. 4) (cis P-tau [3]): top four performing variants
- Functional restoration 7-hit TBI [4]: 1.4

B3: HT18: humanized cis-pThr231-tau mAb; heavy chain variable domain SEQ ID NO: 29, light chain variable domain SEQ ID NO: 20 (antibody, V domains shown)
VH: B1 VH with A16S, M20V, K38R, R40A, I48M, A68V, L70I, V72R, A76M, M81T
VL: DIQMTQSPSTLSASVGDRVTITCRSSQSLVHSDGNTYLHWYQQKPGKAPKLLIYKVSNRFSGVPSRFSGSGSGTEFTLTISSLQPDDFATYYCSQSTHVPWTFGQGTKLEIK
- VCID-like behavioral changes ([6]; 1 month after BCAS surgery): effective in preventing VCID-like behavioral changes
- VCID-like behavioral changes [6, 7]: effective in preventing VCID-like behavioral changes
- detection of cis P-tau in CSF of live TBI patients (cis P-tau [5]): robust detection of cis P-tau as early as three days after TBI
- Kd [1]: 1.91 nM
- Functional restoration 3-hit TBI [2]: 1.0
- elimination of cis P-tau in neurons under hypoxic conditions (images) (cis P-tau [3]): elimination of cis P-tau
- rank in cis P-tau elimination assay (FIG. 4) (cis P-tau [3]): top four performing variants
- Functional restoration 7-hit TBI [4]: 1.1

B4: HT3: humanized cis-pThr231-tau mAb; heavy chain variable domain SEQ ID NO: 27, light chain variable domain SEQ ID NO: 16 (antibody, V domains shown)
VH: B1 VH with M20V, K38R, A68V
VL: B1 VL
- Kd [1]: 3.51 nM
- Functional restoration 3-hit TBI [2]: 1.7
- elimination of cis P-tau in neurons under hypoxic conditions (images) (cis P-tau [3]): elimination of cis P-tau
- Functional restoration 7-hit TBI [4]: 2.0

B5: HT10: humanized cis-pThr231-tau mAb; heavy chain variable domain SEQ ID NO: 26, light chain variable domain SEQ ID NO: 19 (antibody, V domains shown)
VH: B1 VH
VL: B1 VL with F92Y
- VCID-like behavioral changes ([6]; 1 month after BCAS surgery): effective in preventing VCID-like behavioral changes
- VCID-like behavioral changes [6, 7]: effective in preventing VCID-like behavioral changes
- detection of cis P-tau in CSF of live TBI patients (cis P-tau [5]): robust detection of cis P-tau as early as three days after TBI
- Kd [1]: 1.77 nM
- Functional restoration 3-hit TBI [2]: 1.2
- elimination of cis P-tau in neurons under hypoxic conditions (images) (cis P-tau [3]): elimination of cis P-tau
- rank in cis P-tau elimination assay (FIG. 4) (cis P-tau [3]): top four performing variants
- Functional restoration 7-hit TBI [4]: 1.3
